Reference: patent US20220401544A1

What was measured:
[1] = target: N. meningitidis serogroup B factor H binding protein (fHBP, LP2086) variant A02 (Neisseria meningitidis serogroup B)
[2] = target: N. meningitidis serogroup B factor H binding protein (fHBP, LP2086) variant A28 (Neisseria meningitidis serogroup B)
[3] = target: N. meningitidis serogroup B factor H binding protein (fHBP, LP2086) variant A42 (Neisseria meningitidis serogroup B)
[4] = target: N. meningitidis serogroup B factor H binding protein (fHBP, LP2086) variant A63 (Neisseria meningitidis serogroup B)
[5] = target: N. meningitidis serogroup B factor H binding protein (fHBP, LP2086) variant A76 (Neisseria meningitidis serogroup B)
[6] = target: N. meningitidis serogroup B factor H binding protein (fHBP, LP2086) variant B05 (Neisseria meningitidis serogroup B) (UniProt E6MV22)
[7] = target: N. meningitidis serogroup B factor H binding protein (fHBP, LP2086) variant B07 (Neisseria meningitidis serogroup B) (UniProt E6MV22)
[8] = target: N. meningitidis serogroup B factor H binding protein (fHBP, LP2086) variant B08 (Neisseria meningitidis serogroup B) (UniProt E6MV22)
[9] = target: N. meningitidis serogroup B factor H binding protein (fHBP, LP2086) variant B107 (Neisseria meningitidis serogroup B)
[10] = target: N. meningitidis serogroup B factor H binding protein (fHBP, LP2086) variant B13 (Neisseria meningitidis serogroup B) (UniProt E6MV22)
[11] = target: N. meningitidis serogroup B factor H binding protein (fHBP, LP2086) variant B52 (Neisseria meningitidis serogroup B) (UniProt E6MV22)
[12] = target: N. meningitidis factor H binding protein (fHBP) variant A10 (Neisseria meningitidis serogroup B)
[13] = target: N. meningitidis serogroup B factor H binding protein (fHBP) variant A08 (Neisseria meningitidis serogroup B)
[14] = target: N. meningitidis serogroup B factor H binding protein (fHBP) variant A20 (Neisseria meningitidis serogroup B)
[15] = target: N. meningitidis serogroup B factor H binding protein (fHBP) variant A40 (Neisseria meningitidis serogroup B)
[16] = target: N. meningitidis serogroup B factor H binding protein (fHBP) variant A52 (Neisseria meningitidis serogroup B)
[17] = target: N. meningitidis serogroup B factor H binding protein (fHBP) variant B10 (Neisseria meningitidis serogroup B)
[18] = target: N. meningitidis serogroup B factor H binding protein (fHBP) variant B91 (Neisseria meningitidis serogroup B)
[19] = target: N. meningitidis serogroup B factor H binding protein (FHbp, LP2086) variant A06 (Neisseria meningitidis serogroup B)
[20] = target: N. meningitidis serogroup B factor H binding protein (FHbp, LP2086) variant A07 (Neisseria meningitidis serogroup B)
[21] = target: N. meningitidis serogroup B factor H binding protein (FHbp, LP2086) variant A12 (Neisseria meningitidis serogroup B)
[22] = target: N. meningitidis serogroup B factor H binding protein (FHbp, LP2086) variant A15 (Neisseria meningitidis serogroup B)
[23] = target: N. meningitidis serogroup B factor H binding protein (FHbp, LP2086) variant A19 (Neisseria meningitidis serogroup B)
[24] = target: N. meningitidis serogroup B factor H binding protein (FHbp, LP2086) variant A22 (Neisseria meningitidis serogroup B)
[25] = target: N. meningitidis serogroup B factor H binding protein (FHbp, LP2086) variant A29 (Neisseria meningitidis serogroup B)
[26] = target: N. meningitidis serogroup B factor H binding protein (FHbp, LP2086) variant A56 (Neisseria meningitidis serogroup B)
[27] = target: N. meningitidis serogroup B factor H binding protein (FHbp, LP2086) variant B03 (Neisseria meningitidis serogroup B) (UniProt E6MV22)
[28] = target: N. meningitidis serogroup B factor H binding protein (FHbp, LP2086) variant B09 (Neisseria meningitidis serogroup B) (UniProt E6MV22)
[29] = target: N. meningitidis serogroup B factor H binding protein (FHbp, LP2086) variant B15 (Neisseria meningitidis serogroup B) (UniProt E6MV22)
[30] = target: N. meningitidis serogroup B factor H binding protein (FHbp, LP2086) variant B16 (Neisseria meningitidis serogroup B) (UniProt E6MV22)
[31] = target: N. meningitidis serogroup B factor H binding protein (FHbp, LP2086) variant B24 (Neisseria meningitidis serogroup B) (UniProt E6MV22)
[32] = target: N. meningitidis serogroup B factor H binding protein (FHbp, LP2086) variant B44 (Neisseria meningitidis serogroup B)
[33] = target: N. meningitidis serogroup B factor H binding protein (FHbp, LP2086) variant A56 (Neisseria meningitidis serogroup B); assay: MEASURE flow cytometry, variant group A56 (only one strain)
[34] = target: N. meningitidis serogroup B factor H binding protein (FHbp, LP2086) variant A06 (Neisseria meningitidis serogroup B); assay: MEASURE flow cytometry, median over MenB isolates expressing A06
[35] = target: N. meningitidis serogroup B factor H binding protein (FHbp, LP2086) variant A12 (Neisseria meningitidis serogroup B); assay: MEASURE flow cytometry, median over MenB isolates expressing A12
[36] = target: N. meningitidis serogroup B factor H binding protein (FHbp, LP2086) variant A15 (Neisseria meningitidis serogroup B); assay: MEASURE flow cytometry, median over MenB isolates expressing A15
[37] = target: N. meningitidis serogroup B factor H binding protein (FHbp, LP2086) variant A19 (Neisseria meningitidis serogroup B); assay: MEASURE flow cytometry, median over MenB isolates expressing A19
[38] = target: N. meningitidis serogroup B factor H binding protein (FHbp, LP2086) variant A22 (Neisseria meningitidis serogroup B); assay: MEASURE flow cytometry, median over MenB isolates expressing A22
[39] = target: N. meningitidis serogroup B factor H binding protein (FHbp, LP2086) variant A29 (Neisseria meningitidis serogroup B); assay: MEASURE flow cytometry, median over MenB isolates expressing A29
[40] = target: N. meningitidis serogroup B factor H binding protein (FHbp, LP2086) variant B03 (Neisseria meningitidis serogroup B) (UniProt E6MV22); assay: MEASURE flow cytometry, median over MenB isolates expressing B03
[41] = target: N. meningitidis serogroup B factor H binding protein (FHbp, LP2086) variant B09 (Neisseria meningitidis serogroup B) (UniProt E6MV22); assay: MEASURE flow cytometry, median over MenB isolates expressing B09
[42] = target: N. meningitidis serogroup B factor H binding protein (FHbp, LP2086) variant B15 (Neisseria meningitidis serogroup B) (UniProt E6MV22); assay: MEASURE flow cytometry, median over MenB isolates expressing B15
[43] = target: N. meningitidis serogroup B factor H binding protein (FHbp, LP2086) variant B16 (Neisseria meningitidis serogroup B) (UniProt E6MV22); assay: MEASURE flow cytometry, median over MenB isolates expressing B16
[44] = target: N. meningitidis serogroup B factor H binding protein (FHbp, LP2086) variant B24 (Neisseria meningitidis serogroup B) (UniProt E6MV22); assay: MEASURE flow cytometry, median over MenB isolates expressing B24
[45] = target: N. meningitidis serogroup B factor H binding protein (FHbp, LP2086) variant B44 (Neisseria meningitidis serogroup B); assay: MEASURE flow cytometry, median over MenB isolates expressing B44

Substance monoclonal antibody MN86-994-11 has a fHBP Expression (MFI) [1] of 13200 MFI, a fHBP Expression (MFI) [2] of 4190 MFI and a fHBP Expression (MFI) [3] of 1610 MFI. For the same substance, the fHBP Expression (MFI) [4] was 10800 MFI, the fHBP Expression (MFI) [5] was 11300 MFI and the fHBP Expression (MFI) [6] was 2920 MFI. It also gave a fHBP Expression (MFI) [7] of 1350 MFI, a fHBP Expression (MFI) [8] of 1560 MFI and a fHBP Expression (MFI) [9] of 11100 MFI. It also gave a fHBP Expression (MFI) [10] of 1850 MFI, a fHBP Expression (MFI) [11] of 8730 MFI and a fHBP Expression (MFI) [12] of under 1000 MFI. For the same substance, the fHBP Expression (MFI) [13] was under 1000 MFI, the fHBP Expression (MFI) [14] was under 1000 MFI and the fHBP Expression (MFI) [15] was under 1000 MFI. The fHBP Expression (MFI) [16] was under 1000 MFI, the fHBP Expression (MFI) [17] was under 1000 MFI and the fHBP Expression (MFI) [18] was under 1000 MFI. For the same substance, the Strain MEASURE MFI [19] was 3370 MFI, the FHbp Variant Group MEASURE MFI Median [20] was 1100 MFI and the Strain MEASURE MFI [20] was 1380 MFI. For the same substance, the Strain MEASURE MFI [21] was 2540 MFI, the Strain MEASURE MFI [22] was 3000 MFI and the Strain MEASURE MFI [23] was 1930 MFI. It also gave a Strain MEASURE MFI [24] of 3130 MFI, a Strain MEASURE MFI [25] of 3840 MFI and a Strain MEASURE MFI [26] of 5000 MFI. The Strain MEASURE MFI [27] was 3980 MFI, the Strain MEASURE MFI [28] was 2090 MFI and the Strain MEASURE MFI [29] was 3780 MFI. The Strain MEASURE MFI [30] was 2350 MFI, the Strain MEASURE MFI [31] was 6970 MFI and the Strain MEASURE MFI [32] was 11300 MFI. For the same substance, the FHbp Variant Group MEASURE MFI Median [33] was 5000 MFI, the FHbp Variant Group MEASURE MFI Median [34] was 3090 MFI and the FHbp Variant Group MEASURE MFI Median [35] was 2470 MFI. For the same substance, the FHbp Variant Group MEASURE MFI Median [36] was 2900 MFI, the FHbp Variant Group MEASURE MFI Median [37] was 1760 MFI and the FHbp Variant Group MEASURE MFI Median [38] was 2500 MFI. The FHbp Variant Group MEASURE MFI Median [39] was 5990 MFI, the FHbp Variant Group MEASURE MFI Median [40] was 2940 MFI and the FHbp Variant Group MEASURE MFI Median [41] was 2280 MFI. For the same substance, the FHbp Variant Group MEASURE MFI Median [42] was 4820 MFI, the FHbp Variant Group MEASURE MFI Median [43] was 2000 MFI and the FHbp Variant Group MEASURE MFI Median [44] was 8460 MFI. The FHbp Variant Group MEASURE MFI Median [45] was 14800 MFI.
